From patent US20230203117A1 (published 2023)

Tests used:
G3 [1] = test: SPR (Biacore); without IL-10Rα
G3 [2] = test: SPR (Biacore); monomer, without IL-10Rα
B11 = test: SPR (Biacore); monomer, without IL-10Rα
A11 = test: SPR (Biacore); monomer, without IL-10Rα
R5A11 = test: SPR (Biacore); monomer, without IL-10Rα
R5A11 (+Rα) = R5A11 (+Rα) (UniProt Q13651 22-235); test: SPR (Biacore); pre-bound to IL-10Rα
A11 (+Rα) = A11 (+Rα) (UniProt Q13651 22-235); test: SPR (Biacore); pre-bound to IL-10Rα
B11 (+Rα) = B11 (+Rα) (UniProt Q13651 22-235); test: SPR (Biacore); pre-bound to IL-10Rα
G3 (+Rα) = test: SPR (Biacore); pre-bound to IL-10Rα

B1: IL-10Rβ (receptor)
chain: MVPPPENVRMNSVNFKNILQWESPAFAKGNLTFTAQYLSYRIFQDKCMNTTLTECDFSSLSKYGDHTLRVRAEFADEHSDWVNITFCPVDDTIIGPPGMQVEVLADSLHMRFLAPKIENEYETWTMKNVYNSWTYNVQYWKNGTDEKFQITPQYDFEVLRNLEPWTTYCVQVRGFLPDRNKAGEWSEPVCEQTTHDETVPSLNDIFEAQKIEWHWHHHHHH
modifications: biotinylated with BirA ligase on the biotin acceptor peptide
Kd (G3 [1]): 2400 nM
Kd (G3 [2]): 2400 nM
Kd (B11): 9400 nM
Kd (A11): 2400 nM
Kd (R5A11): 8900 nM
Kd (R5A11 (+Rα)): 100 nM
Kd (A11 (+Rα)): 23 nM
Kd (B11 (+Rα)): 65 nM
Kd (G3 (+Rα)): 8 nM
